Reference: patent publication US20250243265A1

Tests used:
[1] = molecular target: K63-linked diubiquitin (Boston Biochem) (Homo sapiens (Human)) (UniProt P0CG48); test: western blot, 1 µg/mL IgG, two-fold dilutions of K63-linked diubiquitin
[2] = molecular target: endogenous K63 polyubiquitin linkages in 293T cell lysates (human) (UniProt P0CG48); test: IP in 7 M urea from LUBAC over-expressing 293T lysate (input 5075), mass spec AQUA
[3] = molecular target: endogenous K48 polyubiquitin linkages in 293T cell lysates (human) (UniProt P0CG48); test: IP in 7 M urea from LUBAC over-expressing 293T lysate (input 12420), mass spec AQUA

limit of detection in western blot [1] [ng] | polyubiquitin linkages recovered in the IP [2] [pmol] | polyubiquitin linkages recovered in the IP [3] [pmol] | Substance
62 |  |  | Apu3.A8 anti-K63 IgG (antibody)
 | 0 | 1 | isotype control IgG (unrelated human kappa IgG1 antibody)
